We go through 1 molecule from publication PMC4139307, “Transforming Growth Factor-β1 Signaling Represses Testicular Steroidogenesis through Cross-Talk with Orphan Nuclear Receptor Nur77”.

For this series, the target named is GST-Nur77 (UniProt P12813 1-601). Kind of series: EMSA; not given in material (EMSA according to previously described procedures, ref 34). The conditions noted are these: protein: recombinant; tags: GST; label: 32P (alpha-32P dCTP labeling); annealed to complementary oligonucleotide.
GST-Nur77, sequence (P12813 whole entry): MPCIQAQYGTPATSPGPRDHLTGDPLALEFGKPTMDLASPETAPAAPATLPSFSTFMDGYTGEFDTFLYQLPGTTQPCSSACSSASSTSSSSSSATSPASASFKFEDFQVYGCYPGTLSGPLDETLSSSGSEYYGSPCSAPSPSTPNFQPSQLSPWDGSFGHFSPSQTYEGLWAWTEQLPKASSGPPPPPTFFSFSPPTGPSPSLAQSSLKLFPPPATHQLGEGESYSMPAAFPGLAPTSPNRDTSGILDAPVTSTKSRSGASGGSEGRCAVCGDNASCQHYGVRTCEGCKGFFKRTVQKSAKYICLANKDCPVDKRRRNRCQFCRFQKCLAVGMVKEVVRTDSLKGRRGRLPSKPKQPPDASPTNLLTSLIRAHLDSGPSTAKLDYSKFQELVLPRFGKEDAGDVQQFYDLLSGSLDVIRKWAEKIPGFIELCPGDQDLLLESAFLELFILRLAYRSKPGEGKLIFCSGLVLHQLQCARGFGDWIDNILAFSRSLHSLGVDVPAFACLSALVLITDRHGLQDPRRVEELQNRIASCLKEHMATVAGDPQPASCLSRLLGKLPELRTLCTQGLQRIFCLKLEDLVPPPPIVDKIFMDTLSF

B1: NBRE oligonucleotide (dsDNA)
DNA 1: GGGGCTCGTGCGAAAAGGTCAAGCGCTA
DNA 2: TAGCGCTTGACCTTTTCGCACGAGCCCC
Take B1: the binding result is listed as “binds”.
